Laboratory results taken from patent US20150368316A1 (ALBERT EINSTEIN COLLEGE OF MEDICINE OF YESHIVA UNIVERSITY, published 2015).

T1: human PD-L2-Ig (immobilized) (human, UniProt Q9BQ51 20-219)
T1 construct: also called huPD-L2; huPD-L2-Ig; not shown: Ig part of the fusion
T1 sequence (looked up): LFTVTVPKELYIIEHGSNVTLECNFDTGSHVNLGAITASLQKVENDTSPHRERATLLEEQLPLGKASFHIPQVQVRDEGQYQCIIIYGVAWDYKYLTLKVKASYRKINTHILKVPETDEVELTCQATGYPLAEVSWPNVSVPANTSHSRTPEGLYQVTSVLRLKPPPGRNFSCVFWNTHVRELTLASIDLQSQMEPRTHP

T2: mouse PD-L2-Ig (mouse, UniProt Q9WUL5 20-219)
T2 construct: also called mPD-L2-Ig; not shown: Ig part of the fusion
T2 sequence (looked up): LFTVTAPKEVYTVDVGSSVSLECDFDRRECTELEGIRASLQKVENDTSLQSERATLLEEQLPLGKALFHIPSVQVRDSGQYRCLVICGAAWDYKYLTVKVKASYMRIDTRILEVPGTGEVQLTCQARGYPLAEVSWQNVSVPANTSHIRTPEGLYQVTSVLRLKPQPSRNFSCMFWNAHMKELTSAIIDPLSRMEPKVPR


Experiments:
Assay in all cases: Kd from fitting (SPR)
[1] = target: T1, human PD-L2-Ig (immobilized)
[2] = target: T3, human PD-L1-Ig (immobilized) (human, UniProt Q9NZQ7 19-238)
T3 construct: also called huPD-L1; huPD-L1-Ig; not shown: Ig part of the fusion

mouse PD-L2-Ig = target: T2, mouse PD-L2-Ig
mouse PD-L1-Ig = target: T4, mouse PD-L1-Ig (mouse, UniProt Q9EP73 19-238)
T4 construct: also called mPD-L1-Ig; not shown: Ig part of the fusion
T4 sequence (Q9EP73 19-238): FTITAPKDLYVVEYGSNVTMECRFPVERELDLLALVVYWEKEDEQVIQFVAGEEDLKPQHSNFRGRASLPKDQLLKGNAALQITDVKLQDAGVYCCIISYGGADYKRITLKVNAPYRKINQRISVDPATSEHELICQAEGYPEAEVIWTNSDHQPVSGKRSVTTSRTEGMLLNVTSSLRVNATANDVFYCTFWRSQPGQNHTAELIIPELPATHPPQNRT

T3 sequence (Q9NZQ7 19-238): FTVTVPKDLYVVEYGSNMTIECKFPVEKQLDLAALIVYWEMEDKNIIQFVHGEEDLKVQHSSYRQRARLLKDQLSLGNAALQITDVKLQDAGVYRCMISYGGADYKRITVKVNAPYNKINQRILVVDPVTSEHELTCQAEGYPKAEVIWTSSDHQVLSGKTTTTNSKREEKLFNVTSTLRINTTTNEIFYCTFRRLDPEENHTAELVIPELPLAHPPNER

Binder	Kd [1] [nM]	Kd [2] [nM]	Kd (mouse PD-L2-Ig) [nM]	Kd (mouse PD-L1-Ig) [nM]
mouse PD-1 (wild type) (receptor, UniProt Q02242 34-150, looked up, also called m PD-1) SLTFYPAWLTVSEGANATFTCSLSNWSEDLMLNWNRLSPSNQTEKQAAFCNGLSQPVQDARFQIIQLPNRHDFHMNILDTRRNDSGIYLCGAISLHPKAKIEESPGAELVVTERILE	10700	4020	2800	–
mouse HA PD-1 (high-affinity mutant) (receptor, UniProt Q02242 34-150, looked up, also called m HA PD-1) SLTFYPAWLTVSEGANATFTCSLSNWSEDLMLNWNRLSPSNQTEKQAAFCNGLSQPVQDARFQIIQLPNRHDFHMNILDTRRNDSGIYLCGAISLHPKLKIEESPGAELVVTERILE	1180	480	470	2780
